Measurements from US20260008815A1, “CYCLIC PEPTIDE OR SALT THEREOF, AND USES THEREOF” (FUJIFILM Corporation, priority 2023, published 2026).
Bridge positions count the residues as written; N and C are the ends. Ends that are not written are not given here. COCH2 = acetyl group that carries the bridge

B1: cyclic peptide SEQ ID NO: 337 (peptide)
peptide: YCEKNYLDPEQYQYFIYFK(COCH2)Y
modifications: thioether 2-19; not fully specified; printed as Y-(C)-EKNYLDPEQYQYFIYF-(K(acetyl))-Y
B2: cyclic peptide SEQ ID NO: 338 (peptide)
peptide: YCEENKLDPEQYQYFIYFK(COCH2)Y
modifications: thioether 2-19; not fully specified; printed as Y-(C)-EENKLDPEQYQYFIYF-(K(acetyl))-Y
B3: cyclic peptide SEQ ID NO: 346 (peptide)
peptide: YCEENYLDPEQYQYFIYFK(COCH2)K
modifications: thioether 2-19; not fully specified; printed as Y-(C)-EENYLDPEQYQYFIYF-(K(acetyl))-K
B4: cyclic peptide SEQ ID NO: 340 (peptide)
peptide: YCEENYLKPEQYQYFIYFK(COCH2)Y
modifications: thioether 2-19; not fully specified; printed as Y-(C)-EENYLKPEQYQYFIYF-(K(acetyl))-Y
B5: cyclic peptide SEQ ID NO: 342 (peptide)
peptide: YCEENYLDPKQYQYFIYFK(COCH2)Y
modifications: thioether 2-19; not fully specified; printed as Y-(C)-EENYLDPKQYQYFIYF-(K(acetyl))-Y
B6: cyclic peptide SEQ ID NO: 343 (peptide)
peptide: YCEENYLDPEQYKYFIYFK(COCH2)Y
modifications: thioether 2-19; not fully specified; printed as Y-(C)-EENYLDPEQYKYFIYF-(K(acetyl))-Y
B7: cyclic peptide SEQ ID NO: 344 (peptide)
peptide: YCEENYLDPEQYQYFKYFK(COCH2)Y
modifications: thioether 2-19; not fully specified; printed as Y-(C)-EENYLDPEQYQYFKYF-(K(acetyl))-Y
B8: cyclic peptide SEQ ID NO: 341 (peptide)
peptide: YCEENYLDKEQYQYFIYFK(COCH2)Y
modifications: thioether 2-19; not fully specified; printed as Y-(C)-EENYLDKEQYQYFIYF-(K(acetyl))-Y
B9: cyclic peptide SEQ ID NO: 339 (peptide)
peptide: YCEENYKDPEQYQYFIYFK(COCH2)Y
modifications: thioether 2-19; not fully specified; printed as Y-(C)-EENYKDPEQYQYFIYF-(K(acetyl))-Y
B10: cyclic peptide SEQ ID NO: 345 (peptide)
peptide: YCEENYLDPEQYQYFIKFK(COCH2)Y
modifications: thioether 2-19; not fully specified; printed as Y-(C)-EENYLDPEQYQYFIKF-(K(acetyl))-Y

biological target: T1, Recombinant Human FGFR2 alpha (IIIc) Fc Chimera Protein, CF (R&D systems, 712-FR-050) (human, UniProt P21802 22-377); test: ELISA on plate-bound FGFR2-Fc
T1 construct: bought; not shown: Fc part of the chimera
T1 sequence (P21802 22-377, change not shown): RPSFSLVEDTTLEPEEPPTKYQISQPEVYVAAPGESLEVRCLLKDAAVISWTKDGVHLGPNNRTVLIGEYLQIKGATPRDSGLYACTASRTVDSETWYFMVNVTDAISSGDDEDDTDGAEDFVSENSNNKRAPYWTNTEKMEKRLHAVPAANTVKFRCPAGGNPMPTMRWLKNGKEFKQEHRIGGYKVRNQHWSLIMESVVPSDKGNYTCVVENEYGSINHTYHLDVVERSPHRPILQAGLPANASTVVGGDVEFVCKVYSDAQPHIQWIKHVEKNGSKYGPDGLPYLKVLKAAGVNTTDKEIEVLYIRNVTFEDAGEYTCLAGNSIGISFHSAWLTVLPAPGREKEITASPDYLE
Outline: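 Peptide binding scored by category from dose-response of background-corrected luminescence (FGFR-coated minus uncoated wells). Detection via anti-Myc antibody (2 h, room temperature) after 3 h peptide incubation on wells coated with 5 ng FGFR2 alpha (IIIc)-Fc.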

| ELISA luminescence signal at 10 nmol/L peptide, relative to SEQ ID NO: 47 (=1) [ratio] | Binder |
| --- | --- |
| ≥ 0.7 | B1 |
| 0.1 to 0.5 | B2 |
| ≥ 0.7 | B3 |
| ≥ 0.7 | YCEENMLDPEQYQYFIYFK(COCH2)Y (thioether 2-19) [cyclic peptide SEQ ID NO: 350] |
| ≥ 0.7 | YCEMNYLDPEQYQYFIYFK(COCH2)Y (thioether 2-19) [cyclic peptide SEQ ID NO: 349] |
| 0.1 to 0.5 | B4 |
| ≥ 0.7 | B5 |
| ≥ 0.7 | MCEENYLDPEQYQYFIYFK(COCH2)Y (thioether 2-19) [cyclic peptide SEQ ID NO: 347] |
| ≥ 0.7 | B6 |
| ≥ 0.7 | B7 |
| ≥ 0.7 | B8 |
| ≥ 0.7 | B9 |
| ≥ 0.7 | B10 |
| ≥ 0.7 | YCMENYLDPEQYQYFIYFK(COCH2)Y (thioether 2-19) [cyclic peptide SEQ ID NO: 348] |
